This note sets out measurements from patent publication US20140370037A1 (published 2014).

The chains are these.
T1: human DLL3 antigen (human, UniProt Q9NYJ7 27-492, limits assumed)
T1 construct: also called immobilized human DLL3; recombinant human DLL3
T1 sequence (looked up): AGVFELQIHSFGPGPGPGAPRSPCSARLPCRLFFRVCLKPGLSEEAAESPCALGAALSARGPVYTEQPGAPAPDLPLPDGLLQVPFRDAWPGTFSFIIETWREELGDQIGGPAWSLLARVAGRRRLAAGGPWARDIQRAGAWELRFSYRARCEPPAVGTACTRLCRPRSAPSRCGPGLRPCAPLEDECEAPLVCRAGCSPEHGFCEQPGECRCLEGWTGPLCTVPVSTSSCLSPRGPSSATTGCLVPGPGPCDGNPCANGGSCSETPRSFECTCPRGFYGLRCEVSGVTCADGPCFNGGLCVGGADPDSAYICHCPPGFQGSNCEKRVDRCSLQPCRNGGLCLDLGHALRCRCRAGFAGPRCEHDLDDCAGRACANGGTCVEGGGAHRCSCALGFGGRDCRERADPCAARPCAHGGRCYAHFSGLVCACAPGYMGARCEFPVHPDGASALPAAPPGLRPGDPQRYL

B1: SC16.84 (antibody, V domains shown)
VH: EVQLQQSGPELVKPGASMKISCKASGYSFTGYTMNWVKQSHGKNLEWIGLINPYNGGTTYNQKFKGKATLTVDKSSSTAYMELLSLTSEDSAVYYCALGYYGNYRRYFDVWGAGTTVTVSS
VL: DIQMTQSPSSLSASLGGKVTITCKASQDIKKYIAWYQHKPGKGPRLLIHYTSTLEPGIPSRFSGSGSGRDYSFSISNLEPEDIATYYCLQYDILWTFGGGTKLEIK
notes: murine mAb
B2: SC16.80 (antibody, V domains shown)
VH: EVQLQQSGPELVKPGGSKKISCKASGYSFTGYSMNWVKQSHGKNLEWIGLINPYSGGTIYNQKFKGKATLTVDKSSSTAYMELLSLTSEDSAVYYCARRSDYPLVYWGQGTLVTVSA
VL: ETTVTQSPASLSMAIGEKVTIRCITSTDIDDDMIWYQQKPGEPPKLLISEGNTLRPGVPSRFSSSGYGTDFVFTIENMLSEDVADYYCLKRDDLPYTFGGGTQVEIKR
notes: murine mAb
B3: SC16.81 (antibody, V domains shown)
VH: QVQLKESGPVLVAPSQSLSITCTVSGFSLTSYGVHWVRQPPGKGLEWLGVIWAGGSTNYNSALMSRLSISKDNSKSQVFLKMNSLQTDDTAMYYCAKQGNFYAMDYWGQGTSVTVSS
VL: QIVLTQSPAIMSASLGERVTLTCTASSSVSSSYLHWYQQKPGSSPKLWIYSTSNLASGVPTRFSGSGSGTSYSLRISSMEAEDAATYYCHQYNRSPLTFGAGTKLELK
notes: murine mAb
B4: SC16.101 (antibody, V domains shown)
VL: B3 VL with L21M, T61A, G67E, R75T, S78N, N93H, L97F, A101S, L107I
V domain: QVTLKESGPGILQPSQTLSLTCSFSGFSLSTSGMGVGWIRQPSGKGLEWLAHIWWDDVKRYNPALKSRLTISKDASSSQVFLKIASVDTAETATYYCAHILDRAYYFDYWGQGTTLTVTS
notes: murine mAb
B5: SC16.79 (antibody, V domains shown)
VH: EVQLQQSGPELVKPGASVKISCKTSGYTFTEYTMHWVKQSHGKSLEWIGGINPNNGGTSYNQKFKGKATLTVDKSSSTAYMELRSLTSEDSAVYYCARGPAWFAYWGQGTLVTVSA
VL: DIVMSQSPSSLAVSAGEKVTMSCKSSQSLLNSRTRKNYLAWYQQKPGQSPKLLIYWASTRESGVPDRFTGSGSGTDFTLTISSVQAEDLAVYYCKQSYNLYTFGGGTKLKIKR
notes: murine mAb
B6: SC16.88 (antibody, V domains shown)
VH: QVQLQQSGAELARPGASVKLSCKASGYTCTSYWMQWVKQRPGQGLEWIGAIYPGDGDTRYTQKFKGKATLTADKSSSTAYMQLSSLASEDSAVYYCARGRRTEAWFAYWGQGTLVTVSA
VL: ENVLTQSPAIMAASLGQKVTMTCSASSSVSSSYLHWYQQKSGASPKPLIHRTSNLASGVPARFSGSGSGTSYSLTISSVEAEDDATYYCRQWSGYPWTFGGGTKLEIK
notes: murine mAb
B7: SC16.104 (antibody, V domains shown)
VH: QVQLKESGPDLVQPSQTLSLTCTVSGFSLTFYGVHWVRQPPGKGLEWVGTMGWDDKKYYNSALKSRLSISRDTSKNQVFLKLSSLQTEDTAMYYCTRGGTGFDYWGQGTTLTVSS
VL: QIVLSQSPAILSASPGEKVTMTCRASSSVSYIHWYRQKPGSSPKPWIYATSNLASGVPARFSGSGSGTSYSLTISRVEAEDAATYYCQQWSSNPPTFGAGTKLELK
notes: murine mAb
B8: SC16.8 (antibody, V domains shown)
VH: QAQLQQSGAELVRPGTSVKVSCKASGYAFTNYLIEWVKQRPGQGLEWIGVINPGTGGTNYNENFKGKATLTADKSSSTAYMQLSSLTSDDSAVYFCARSPYDYHEGAMDYWGQGTSVTVSS
VL: EIQMTQSPSSMSASLGDRITITCQATQDIVKNLNWYQQKPGKPPSFLIYYAIELAEGVPSRFSGSGSGSDYSLTISNLESEDFADYYCLQFYEFPFTFGAGTKLELK
notes: murine mAb
B9: SC16.106 (antibody, V domains shown)
VH: QVQLKQSGPGLVAPSQSLFITCTVSGFSLTSYEINWVRQPPGKGLEWLGVIWTGGSTNYNSALISRLSISKDNSKSLVFLKMNSLQTDDTAIYYCVRGVYAMDYWGQGTSVTVSS
VL: DIKMTQSPSSMYASLGERVTITCKASQDINSYLSWFQQKPGKSPKTLIYRANRLVDGVPSRFSGSGSGQDYSLTISSLEYEDMGIYYCLQYDEFPFTFGSGTKLEIK
notes: murine mAb

Changes are numbered by the printed parent chain.

In this assay the target is T1, human DLL3 antigen. Briefly: ELISA or flow cytometry screen.
B1: the binding result is given as “binds”.

In the case of B2, the binding result is given as “binds”.

As to B3, the binding result is given as “binds”.

Turning to B4, the binding result is recorded as “binds”.

With B5, the binding result is “binds”.

With B6, the binding result is recorded as “binds”.

As to B7, the binding result was “binds”.

Take B8: the binding result is “binds”.

On to B9, for which the binding result was “binds”.
